The target in the assay is T1, Recombinant human RECQ1 helicase (human, UniProt P46063 1-649).
T1 construct: RECQ1 (RECQL) helicase, human; the gene encodes a 649 amino acid protein of 73 kDa; also called RECQL
T1 sequence (looked up): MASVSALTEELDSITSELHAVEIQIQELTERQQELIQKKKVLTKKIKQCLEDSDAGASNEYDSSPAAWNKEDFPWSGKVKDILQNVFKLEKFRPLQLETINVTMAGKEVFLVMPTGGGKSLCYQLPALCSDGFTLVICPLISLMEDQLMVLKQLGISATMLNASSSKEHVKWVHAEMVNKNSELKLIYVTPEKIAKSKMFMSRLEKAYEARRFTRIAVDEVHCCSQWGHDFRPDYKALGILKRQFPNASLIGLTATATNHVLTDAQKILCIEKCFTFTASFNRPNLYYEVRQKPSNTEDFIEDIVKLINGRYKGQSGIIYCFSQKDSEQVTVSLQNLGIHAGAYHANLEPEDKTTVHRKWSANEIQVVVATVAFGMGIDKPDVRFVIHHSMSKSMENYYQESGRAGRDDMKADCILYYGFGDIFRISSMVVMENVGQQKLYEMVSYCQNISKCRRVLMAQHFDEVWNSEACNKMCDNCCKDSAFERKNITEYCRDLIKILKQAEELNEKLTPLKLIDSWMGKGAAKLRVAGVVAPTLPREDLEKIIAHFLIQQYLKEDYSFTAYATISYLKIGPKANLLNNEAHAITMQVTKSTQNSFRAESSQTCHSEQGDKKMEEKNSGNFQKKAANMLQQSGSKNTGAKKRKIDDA
The assay can be described thus: ELISA; RECQ1 (14 nM; 1 ng/µl, 50 µl) or BSA coated on wells in carbonate buffer pH 9.6; Rad51 0-76 nM in PBS, 0.5% Tween-20, 3% BSA, 1 h at 30°C; detected with rabbit anti-Rad51; Scatchard analysis, apparent Kd; similar signal with DNaseI (100 U/ml) or EtBr (50 µg/ml). The note with it: both partners purified. (An ELISA detects its analyte on a solid surface through an enzyme-linked reagent.)

B1: Purified recombinant human Rad51 (natural protein, UniProt Q06609 1-339, looked up)
chain: MAMQMQLEANADTSVEEESFGPQPISRLEQCGINANDVKKLEEAGFHTVEAVAYAPKKELINIKGISEAKADKILAEAAKLVPMGFTTATEFHQRRSEIIQITTGSKELDKLLQGGIETGSITEMFGEFRTGKTQICHTLAVTCQLPIDRGGGEGKAMYIDTEGTFRPERLLAVAERYGLSGSDVLDNVAYARAFNTDHQTQLLYQASAMMVESRYALLIVDSATALYRTDYSGRGELSARQMHLARFLRMLLRLADEFGVAVVITNQVVAQVDGAAMFAADPKKPIGGNIIAHASTTRLYLRKGRGETRICKIYDSPCLPEAEAMFAINADGVGDAKD
notes: Rad51 strand exchange protein, human; source: provided by Dr. Ian Hickson (Cancer Research UK Laboratories); purified recombinant
On to B1, for which the Kd was determined as 11.9 ± 2.1 nM.

The values above are taken from PMC2111050, “Human RECQ1 Is a DNA Damage Responsive Protein Required for Genotoxic Stress Resistance and Suppression of Sister Chromatid Exchanges” (PLoS ONE, 2007).
